Measurements reported in the supplement of paper PMC9112550, “Optimization of the antimicrobial peptide Bac7 by deep mutational scanning” (BMC Biology, 2022).

Test system: Escherichia coli TOP10
Assay: shrunken log2 fold change of peptide-encoding DNA abundance (4.5 h post-induction vs induction); higher = less antimicrobial activity (less host growth inhibition)
Settings: time post-induction: 4.5 h; library: site-saturation at positions 5, 18, 19, 20
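Also: peptides expressed intracellularly from a pBAD plasmid library in pooled LB shake-flask culture, induced with 0.3% L-arabinose, DNA abundance read by NGS, three biological replicates, DESeq2 with apeglm shrinkage.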

| Sequence | shrunken log2 fold change |
| --- | --- |
| RRIRRRPPRLPRPRPRPYWMPRP | -0.205 |
| RRIRARPPRLPRPRPRPYSHPRP | -0.171 |
| RRIRKRPPRLPRPRPRPVAPPRP | 0.528 |
| RRIRLRPPRLPRPRPRPPPGPRP | 1.29 |
| RRIRRRPPRLPRPRPRPRFFPRP | 0.507 |
| RRIRARPPRLPRPRPRPFMHPRP | 0.229 |
| RRIRERPPRLPRPRPRPQWEPRP | -0.0702 |
| RRIRSRPPRLPRPRPRPSCCPRP | -0.102 |
| RRIRVRPPRLPRPRPRPQTKPRP | 0.0433 |
| RRIRDRPPRLPRPRPRPTCGPRP | 1.11 |
| RRIRQRPPRLPRPRPRPDGHPRP | -0.0936 |
| RRIRSRPPRLPRPRPRPLRFPRP | 0.926 |
| RRIRFRPPRLPRPRPRPGLAPRP | 0.344 |
| RRIRYRPPRLPRPRPRPLIIPRP | -1.2 |
| RRIRLRPPRLPRPRPRPPHWPRP | 0.38 |
| RRIRPRPPRLPRPRPRPLYTPRP | -0.37 |
| RRIRQRPPRLPRPRPRPPIFPRP | 0.163 |
| RRIRVRPPRLPRPRPRPVPTPRP | 0.149 |
| RRIRSRPPRLPRPRPRPPKIPRP | -0.0117 |
| RRIRQRPPRLPRPRPRPSRPPRP | 0.37 |
| RRIRMRPPRLPRPRPRPRCFPRP | 0.397 |
| RRIRKRPPRLPRPRPRPYPVPRP | -0.801 |
| RRIRIRPPRLPRPRPRPPCLPRP | -0.122 |

| Sequence | shrunken log2 fold change |
| --- | --- |
| RRIRARPPRLPRPRPRPVKIPRP | 0.0527 |
| RRIRIRPPRLPRPRPRPSIEPRP | -0.407 |
| RRIRIRPPRLPRPRPRPGVQPRP | -0.00174 |
| RRIRPRPPRLPRPRPRPEPGPRP | 0.27 |
| RRIRPRPPRLPRPRPRPRIKPRP | -0.138 |
| RRIRNRPPRLPRPRPRPAGYPRP | -0.0215 |
| RRIRQRPPRLPRPRPRPNMYPRP | -0.433 |
| RRIRHRPPRLPRPRPRPLYDPRP | -0.738 |
| RRIRNRPPRLPRPRPRPPKVPRP | 0.28 |
| RRIRWRPPRLPRPRPRPVIPPRP | -0.0775 |
| RRIRNRPPRLPRPRPRPYPLPRP | -0.042 |
| RRIRSRPPRLPRPRPRPVPYPRP | -0.248 |
| RRIRNRPPRLPRPRPRPPWKPRP | -0.0649 |
| RRIRERPPRLPRPRPRPTATPRP | 0.259 |
| RRIRKRPPRLPRPRPRPQRYPRP | 0.132 |
| RRIRIRPPRLPRPRPRPQWRPRP | -0.191 |
| RRIRIRPPRLPRPRPRPSTPPRP | -0.373 |
| RRIRLRPPRLPRPRPRPGGRPRP | -0.0451 |
| RRIRTRPPRLPRPRPRPPLYPRP | -0.12 |
| RRIRKRPPRLPRPRPRPGKSPRP | 0.0157 |
| RRIRNRPPRLPRPRPRPVGCPRP | 0.618 |
| RRIRWRPPRLPRPRPRPQCHPRP | -0.13 |
| RRIRDRPPRLPRPRPRPEYGPRP | 0.305 |

| Sequence | shrunken log2 fold change |
| --- | --- |
| RRIRNRPPRLPRPRPRPDHTPRP | -0.0123 |
| RRIRPRPPRLPRPRPRPCLDPRP | -0.251 |
| RRIRERPPRLPRPRPRPYANPRP | 0.0234 |
| RRIRERPPRLPRPRPRPTKEPRP | -0.465 |
| RRIRRRPPRLPRPRPRPAYVPRP | 0.0253 |
| RRIRGRPPRLPRPRPRPRTWPRP | 0.317 |
| RRIRNRPPRLPRPRPRPFWRPRP | -0.0018 |
| RRIRNRPPRLPRPRPRPGKKPRP | -0.00783 |
| RRIRKRPPRLPRPRPRPVANPRP | 0.0525 |
| RRIRHRPPRLPRPRPRPFQHPRP | -0.0182 |
| RRIRRRPPRLPRPRPRPWGIPRP | -0.24 |
| RRIRVRPPRLPRPRPRPNKSPRP | -0.348 |
| RRIRRRPPRLPRPRPRPTIPPRP | -0.0701 |
| RRIRPRPPRLPRPRPRPAYVPRP | -0.241 |
| RRIRTRPPRLPRPRPRPHNDPRP | -1.58 |
| RRIRCRPPRLPRPRPRPPHGPRP | 0.499 |
| RRIRFRPPRLPRPRPRPGMWPRP | 0.231 |
| RRIRLRPPRLPRPRPRPIEVPRP | 0.434 |
| RRIRFRPPRLPRPRPRPVIKPRP | -0.339 |
| RRIRRRPPRLPRPRPRPMVWPRP | 0.686 |
| RRIRLRPPRLPRPRPRPYKIPRP | -0.0766 |
| RRIRLRPPRLPRPRPRPYYVPRP | -0.0539 |
| RRIRERPPRLPRPRPRPYGNPRP | -0.0871 |

| Sequence | shrunken log2 fold change |
| --- | --- |
| RRIRNRPPRLPRPRPRPALWPRP | -0.15 |
| RRIRRRPPRLPRPRPRPVNYPRP | -0.291 |
| RRIRGRPPRLPRPRPRPWPEPRP | 0.29 |
| RRIRMRPPRLPRPRPRPKNMPRP | -0.0276 |
| RRIRSRPPRLPRPRPRPGSYPRP | -0.0952 |
| RRIRVRPPRLPRPRPRPTESPRP | -0.00266 |
| RRIRVRPPRLPRPRPRPECTPRP | 0.464 |
| RRIRERPPRLPRPRPRPEMVPRP | -0.0371 |
| RRIRMRPPRLPRPRPRPCDPPRP | -0.0166 |
| RRIRIRPPRLPRPRPRPFTTPRP | -0.509 |
| RRIRLRPPRLPRPRPRPMHGPRP | 0.0554 |
| RRIRARPPRLPRPRPRPPKNPRP | 0.562 |
| RRIRLRPPRLPRPRPRPYIWPRP | -0.017 |
| RRIRPRPPRLPRPRPRPHWCPRP | -0.159 |
| RRIRPRPPRLPRPRPRPDVSPRP | 0.0525 |
| RRIRTRPPRLPRPRPRPPNMPRP | -0.203 |
| RRIRYRPPRLPRPRPRPQCQPRP | -0.00208 |
| RRIRIRPPRLPRPRPRPTTNPRP | -0.463 |
| RRIRNRPPRLPRPRPRPWFWPRP | 0.422 |
| RRIRGRPPRLPRPRPRPERSPRP | 1.36 |
| RRIRSRPPRLPRPRPRPGVDPRP | 0.334 |
| RRIRCRPPRLPRPRPRPNATPRP | 0.382 |
